Where a chain is given by its changes, count along the chain named. No end group written: not given here. rhodamine = not defined here
Assays:
[1] = type: physicochemical; conditions: 10 μM peptide, pH 7.0, 20° C.
Description: The circular dichroism (measured in units of ellipticity) of proteins at 222 nm provides a measure of the amount of a-helix present in the structure, with a large, negative ellipticity indicting a high level of helicity. The coiled-coil has a distinctive a-helical CD spectrum with minima at 222 nm and 208 nm (O'Shea et al., 1989, Science, 243: 538–542). The CD spectra of the unmodified Zip3 and its phosphorylated form (‘Zip3P’) are determined at a sample concentration of 10 μM in 150 mM KCB, 42.2 mM K2HPO4, 7.8 mM KH2PO4, pH 7.0 at 20° C.; spectra are recorded using a 1 mm pathlength cell in a Jasco J-715 spectropolarimeter with a Jasco PTC-348W Peltier temperature control unit. Peptide concentration is determined by tyrosine absorbance at 280 nm in 6M GuHCl. […] The effipticities of Zip3 and Zip3P at 222 nm with increasing temperature are measured. The steep portion of the sigmoid curve for Zip3 indicates the unfolding of the molecule. It is clear that this leucine zipper peptide begins to unfold at around 35° C. and is completely unfolded by 70° C. […]
The circular dichroism (measured in units of ellipticity) of proteins at 222 nm provides a measure of the amount of a-helix present in the structure, with a large, negative ellipticity indicting a high level of helicity. […] In all experiments described herein, peptide concentration is determined by tyrosine absorbance at 280 nm in 6M GnHCl.

chymotrypsin = experiment: Time-course digestion with chymotrypsin, MALDI-TOF; type: biochemical
Description: A time-course digestion of Peptide A with chymotrypsin is analysed by MALDI-TOF mass spectrometry. On the protein matrix (MS, denoted SA on each spectrogram) the Peptide A substrate as 4245 Da is evident. […] The C-terminal fragment appears to be cleaved at a second site (after L-26) generating a product of 1100 Da, although the final peptide fragment of about 990 Da is not observed in the MS.

peptide D = experiment: FRET of fluorescein-labelled peptides N and C with rhodamine-labelled peptide D; type: binding; conditions: no peptidase
carboxypeptidase = experiment: Carboxypeptidase digestion, FRET; type: biochemical
aminopeptidase = experiment: Aminopeptidase digestion, FRET; type: biochemical
PKA = PKA (Homo sapiens, UniProt P17612); experiment: Timecourse of phosphorylation by PKA (32P-ATP); type: biochemical; conditions: 0.2 mM ATP
Description: A timecourse of phosphorylation of these peptides by PKA is run in 50 mM histidine/HCl (pH 7.0), 5 mM MgSO4, 5 mM NaF, 0.05 mM EGTA, 120 mM kcb with 0.2 mM ATP (30.9 cpm/pmol ^32P-ATP) and 0.5 μM PKA. […] Zip4T is also phosphorylated, at a slower rate, with full phosphorylation achieved in 30 minutes in this assay. In this assay, the difference in cpm recovered between the Zip4 peptides and PL919Y is due to the difference in recovery of these peptides on P81 paper. The plateau indicates full phosphorylation.
A set of timecourses of phosphorylation is performed on Zip4S using PKA and Ca^2+/Calmodulin-dependent Protein Kinase (CaMK-II), together with positive and negative controls for CaMK-II (these controls confirm that the preparation of CaMK-II posesses the expected characteristics of that enzyme). PKA phosphorylation is performed in 50 mM histidine/HCl (pH 7.0), 5 mM MgSO4, 5 mM NaF, 0.05 mM EGTA, 120 mM kcb with 0.2 mM ATP (39.72 cpm/pmol ^32P-ATP) and 0.25 μM PKA. CaMK-II phosphorylation is performed in 50 mM histidine/HCl (pH 7.0), 5 mM MgSO4, 5 mM NaF, 120 mM kcb, 0.5 mM Ca^2+, 0.037 mg/ml calmodulin with 0.2 mM ATP (39.72 cpm/pmol ^32P-ATP) and 10% crude CaMK-II. In the Ca^2+-free experiment, Ca^2+ is replaced by 0.05 mM EGTA. […]

[2] = system: Ca^2+/Calmodulin-dependent Protein Kinase (CaMK-II); experiment: Timecourse of phosphorylation by CaMK-II (32P-ATP); type: biochemical; conditions: 10% crude CaMK-II, 0.5 mM Ca^2+, 0.037 mg/ml calmodulin, 0.2 mM ATP
Description: A set of timecourses of phosphorylation is performed on Zip4S using PKA and Ca^2+/Calmodulin-dependent Protein Kinase (CaMK-II), together with positive and negative controls for CaMK-II (these controls confirm that the preparation of CaMK-II posesses the expected characteristics of that enzyme). PKA phosphorylation is performed in 50 mM histidine/HCl (pH 7.0), 5 mM MgSO4, 5 mM NaF, 0.05 mM EGTA, 120 mM kcb with 0.2 mM ATP (39.72 cpm/pmol ^32P-ATP) and 0.25 μM PKA. CaMK-II phosphorylation is performed in 50 mM histidine/HCl (pH 7.0), 5 mM MgSO4, 5 mM NaF, 120 mM kcb, 0.5 mM Ca^2+, 0.037 mg/ml calmodulin with 0.2 mM ATP (39.72 cpm/pmol ^32P-ATP) and 10% crude CaMK-II. In the Ca^2+-free experiment, Ca^2+ is replaced by 0.05 mM EGTA. […] Such specificity of a modification site in a polypeptide according to the invention is a clear advantage for use of the invention in an intracellular assay, or for measuring the activity of a particular polypeptide modifying agent in a complex mixture such as a cell lysate.

[3] = target: T1, Peptide C, fluorescein-labelled (fluorescein label (site said to be 'the C and K residues as before', but the entry has neither Cys nor Lys)); experiment: FRET, peptide C immobilised
T1 peptide: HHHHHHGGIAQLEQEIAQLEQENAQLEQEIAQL

[4] = target: T2, Peptide N, fluorescein-labelled (fluorescein label at the K residue); experiment: FRET, peptide N immobilised
T2 peptide: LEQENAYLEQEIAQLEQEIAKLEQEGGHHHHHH

[5] = target: T3, Peptide 3 (SEQ ID NO. 54), labelled with fluorescein (fluorescein at the lysine residue); experiment: FRET, Peptide 3 immobilised
T3 construct: also called peptides 3
T3 peptide: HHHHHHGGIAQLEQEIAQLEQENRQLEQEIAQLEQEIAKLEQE

[6] = target: T4, Peptide 4 (SEQ ID NO. 56) (fluorescein label, by the procedure of Example 10 (not restated)); experiment: FRET, procedure of Example 10
T4 construct: Immobilised peptide of the caspase reporter; also called Peptides 4
T4 peptide: T3 peptide with Q21D, R24D

Zip4SF = target: T5, Zip4SF (fluorescein label (on the cysteine residue, by analogy with Zip3F)); experiment: FRET in solution
T5 construct: read as Zip4S with fluorescein, like Zip3F; also called Zip4S labelled with fluorescein
T5 peptide: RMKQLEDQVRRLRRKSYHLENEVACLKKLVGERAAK

Pep 1 = target: T6, Pep 1; experiment: statement in Example 3
T6 construct: Unphosphorylated; immobilised by its His tag on a Ni-NTA sensor chip in the Biacore assay
T6 peptide: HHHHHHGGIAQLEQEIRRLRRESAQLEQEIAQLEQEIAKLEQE

[7] = target: T7, Pep 1F (Pep 1 peptide labelled with fluorescein) (not fully specified; fluorescein label; the lysine residue is inserted for labelling purposes); experiment: FRET in solution, 50 µM Pep 1F and 50 µM Pep 2R, 37 °C
T7 construct: Unphosphorylated
T7 peptide: T6 peptide
Description: Fluorescence emission of fluorescein is measured at 520 nm by exciting at appropriate wavelength (450 nm). Pep 2R (Pep 2 labelled with rhodamine) at concentrations equal to that of Pep 1F (50 μM) is added and the fluorescence emission of Pep 1F and Pep 2R are monitored.

HHHHHHGGIAQLEQEIAQLEQENAYLEQEIAQLEQEIAKLEQE [Peptide A]
CD spectrum (structure indicated) [1]: classic coiled-coil | digestion by chymotrypsin (chymotrypsin): degraded completely over two hours

LEQENAYLEQEIAQLEQEIAKLEQEGGHHHHHH [Peptide N]
FRET in the presence of rhodamine-labelled peptide D (peptide D): FRET is observed | FRET of pair with peptide D after addition of carboxypeptidase (carboxypeptidase): not affected | FRET of pair with peptide D after addition of aminopeptidase (aminopeptidase): complete loss of FRET

R MKQLEDQ VRRLRRK SYHLENE VACLKKL VGERAAK (RMKQLEDQVRRLRRKSYHLENEVACLKKLVGERAAK) [Zip4S]
extent of phosphorylation by PKA (PKA; 0.25 μM PKA): complete phosphorylation | phosphorylation by PKA (substrate quality, rate) (PKA; 0.5 μM PKA, compared with known substrate PL919Y): good substrate | phosphorylation by CaMK-II [2]: unable to phosphorylate

IAQLKQKIAQLKQKNAQLKQKIAQLKQKIC(rhodamine)QLKQK (reading uncertain) [Peptide D, rhodamine-labelled]
binding result [3]: binds | binding result [4]: binds

IAQLKQKIAQLKQKNAQLKQKIAQLKQKIC(rhodamine)QLKQK (reading uncertain) [peptide 33 (SEQ ID NO. 55), labelled with rhodamine]
binding result [5]: binds

IAQLKQKIAQLKQKNAQLKQKIAQLKQKICQLKQK (also: rhodamine label by procedure, site not given here) [Peptide 44 (SEQ ID NO. 57)]
binding result [6]: binds

B1: Zip4SR (peptide)
peptide: T5 peptide
modifications: also: rhodamine label, read from undefined name by analogy with Zip3R
notes: read as Zip4S with rhodamine, like Zip3R; also called Zip4S labelled with rhodamine
binding result (Zip4SF): binds

IAQLKQEIAQLKQKNAQLKQKIAQLKQKICQLKQK [Pep 2]
binding result (Pep 1): binds

IAQLKQEIAQLKQKNAQLKQKIAQLKQKIC(rhodamine)QLKQK (reading uncertain) [Pep 2R (Pep 2 peptide labelled with rhodamine)]
binding result [7]: binds
